Source: US20260226194A1

Molecular target: recombinant rabbit PAPPA (rabbit) (UniProt G1SFH7)
Test: SPR, Biacore 8K+, mAb captured on PrismA chip, PAPPA as analyte, 37 C, mean of n=3

B1: TPP-12744 (antibody, human IgG1, kappa, V domains shown)
VH: QVQLVQSGAEVKKPGASVKVSCKASGYTFTSYAMHWVRQAPGQRLEWMGWMNAGTGATKSSQKFQGRVTITRDTSASTAYMELSSLRSEDTAVYYCARGPSMETPTTFGMDVWGQGTTVTVSS
VL: DIQMTQSPSSVSASVGDRVTITCRASQGISRWLAWYQQKPGKAPKLLIYAASSLQSGVPSRFSGSGSGTDFTLTISSLQPEDFATYYCQQENAYPFTFGGGTKVEIKR
- Kd: 0.17 nM
- koff: 0.000559 s⁻¹
- kon: 3.28e+06 M⁻¹ s⁻¹
